Legend:
Test in all cases: BLI (Octet), biotinylated mAb on streptavidin sensors, culture supernatant
[1] = molecular target: T1, RSV180916 (I152M + K226M + D486N + S215P + L203I + P101Q; C-tag, RSV A signal peptide) (respiratory syncytial virus, subgroup B …, UniProt O36634 26-109; P13843 137-540)
T1 chain 1: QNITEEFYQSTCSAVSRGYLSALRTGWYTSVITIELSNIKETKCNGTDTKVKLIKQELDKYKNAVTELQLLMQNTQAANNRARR
T1 chain 2: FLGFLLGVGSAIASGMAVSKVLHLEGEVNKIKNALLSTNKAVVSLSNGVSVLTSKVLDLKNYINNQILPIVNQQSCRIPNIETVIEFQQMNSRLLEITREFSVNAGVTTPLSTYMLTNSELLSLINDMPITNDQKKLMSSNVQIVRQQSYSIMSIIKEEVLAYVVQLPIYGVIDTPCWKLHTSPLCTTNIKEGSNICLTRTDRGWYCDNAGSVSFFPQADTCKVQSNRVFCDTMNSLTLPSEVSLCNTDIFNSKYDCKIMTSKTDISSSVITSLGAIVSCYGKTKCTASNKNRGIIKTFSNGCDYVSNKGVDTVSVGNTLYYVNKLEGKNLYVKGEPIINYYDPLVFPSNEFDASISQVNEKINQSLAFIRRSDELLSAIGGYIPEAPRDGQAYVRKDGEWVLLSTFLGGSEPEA
Experimental: (§1) Quantitative Octet (BioLayer Interferometry) was used for measuring protein concentration in the supernatants at day of harvest and after 7 or 30 days storage at 4° C. CR9501 (an antibody specifically recognizing pre-fusion RSV F protein, which comprises the variable regions of the antibodies 58C5 as described in WO2012/006596) and CR9506 (recognizing pre-fusion and post-fusion RSV F protein and comprising a heavy chain variable region comprising SEQ ID NO: 21, and a light chain variable region comprising SEQ ID NO: 22) were biotinylated by standard protocols and immobilized on Streptavidin biosensors (ForteBio, Portsmouth, UK).
(§2) Afterwards, the coated biosensors were blocked in mock cell culture supernatant. A quantitative experiment was performed as follows: temperature 30° C., shaking speed 1000 rpm, time of the assay 300 sec. The concentration of the protein was calculated using a standard curve. The standard curve was prepared for each coated antibody CR9501 and CR9506 using the pre-fusion RSV FA protein (SEQ ID NO: 19; described previously in WO17174568) diluted in mock medium. […] The data analysis was done using the ForteBio Data Analysis 10.0.1.6 software (ForteBio).

[2] = molecular target: T2, RSV180917 (I152M + K226M + D486N + S215P + L203I + P101Q + D489Y + T357R + N371Y) (respiratory syncytial virus, subgroup B …, UniProt O36634 26-109)
T2 construct: also called RSV181917
T2 chain 1: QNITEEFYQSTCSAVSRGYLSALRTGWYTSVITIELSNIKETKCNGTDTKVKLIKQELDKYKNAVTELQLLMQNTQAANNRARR
T2 chain 2: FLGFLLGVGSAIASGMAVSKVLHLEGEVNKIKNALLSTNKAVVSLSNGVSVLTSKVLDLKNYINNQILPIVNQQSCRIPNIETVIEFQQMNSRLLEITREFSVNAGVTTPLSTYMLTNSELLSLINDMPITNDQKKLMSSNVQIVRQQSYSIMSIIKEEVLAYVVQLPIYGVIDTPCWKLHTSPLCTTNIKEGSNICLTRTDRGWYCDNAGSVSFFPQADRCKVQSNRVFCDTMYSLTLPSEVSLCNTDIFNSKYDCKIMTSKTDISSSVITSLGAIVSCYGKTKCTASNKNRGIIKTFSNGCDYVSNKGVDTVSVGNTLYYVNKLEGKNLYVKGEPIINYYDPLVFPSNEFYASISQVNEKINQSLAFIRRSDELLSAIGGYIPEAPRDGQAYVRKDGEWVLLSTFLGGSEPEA
Experimental: as §1, §2

[3] = molecular target: T3, RSV181180 (I152M + K226M + D486N + S215P + P101Q) (respiratory syncytial virus, subgroup B …, UniProt O36634 26-109; P13843 137-540)
T3 chain 1: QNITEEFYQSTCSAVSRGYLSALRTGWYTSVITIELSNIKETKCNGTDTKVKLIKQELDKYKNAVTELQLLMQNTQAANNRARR
T3 chain 2: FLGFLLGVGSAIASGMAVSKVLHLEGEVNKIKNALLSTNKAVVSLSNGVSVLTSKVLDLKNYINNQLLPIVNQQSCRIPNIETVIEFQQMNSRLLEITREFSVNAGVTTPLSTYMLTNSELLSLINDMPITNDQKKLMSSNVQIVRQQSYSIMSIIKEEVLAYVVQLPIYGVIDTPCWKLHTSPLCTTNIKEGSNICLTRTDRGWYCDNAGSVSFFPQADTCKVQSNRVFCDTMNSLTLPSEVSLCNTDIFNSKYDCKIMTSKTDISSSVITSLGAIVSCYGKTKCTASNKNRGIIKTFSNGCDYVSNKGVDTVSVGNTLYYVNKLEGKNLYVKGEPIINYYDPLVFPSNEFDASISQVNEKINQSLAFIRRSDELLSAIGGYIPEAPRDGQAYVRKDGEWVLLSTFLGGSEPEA
Experimental: as §1, §2

[4] = molecular target: T4, RSV180907 (tag-free, RSV FB signal peptide) (respiratory syncytial virus, subgroup B …, UniProt O36634 26-109; P13843 137-540)
T4 construct: Same mature protein as RSV180913, expressed with the RSV B signal peptide; measured in culture supernatant, furin co-transfected
T4 chain 1: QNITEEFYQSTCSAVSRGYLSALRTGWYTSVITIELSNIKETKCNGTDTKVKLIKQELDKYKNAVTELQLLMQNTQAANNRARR
T4 chain 2: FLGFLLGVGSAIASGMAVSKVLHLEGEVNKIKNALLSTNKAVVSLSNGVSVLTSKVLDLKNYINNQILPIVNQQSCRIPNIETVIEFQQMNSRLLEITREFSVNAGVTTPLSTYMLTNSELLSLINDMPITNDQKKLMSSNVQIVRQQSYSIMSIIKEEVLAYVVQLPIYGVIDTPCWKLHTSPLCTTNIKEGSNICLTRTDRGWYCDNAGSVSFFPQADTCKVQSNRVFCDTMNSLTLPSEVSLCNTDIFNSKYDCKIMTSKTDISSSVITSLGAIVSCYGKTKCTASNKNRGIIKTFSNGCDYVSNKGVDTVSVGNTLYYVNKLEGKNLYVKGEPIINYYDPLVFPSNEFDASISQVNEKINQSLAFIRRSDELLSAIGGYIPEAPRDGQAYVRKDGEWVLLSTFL
Experimental: as §1, §2

Measured: binding result

B1: CR9506 (antibody, human IgG1, kappa, V domains shown)
VH: EVQLVQSGAEVKKPGSSVKVSCKASGGTFSRSLITWVRQAPGQGLEWMGEISLVFGSAKNAQKFQGRVTITADESTSTAHMEMISLKHEDTAVYYCAAHQYGSGTHNNFWDESELRFDLWGQGTLVTVSS
VL: DIVMTQSPSSLSASVGDRVTIACRASQSIGTYLNWYQQKPGKAPKLLIYAASSLQSGVPSRFSGSGSGTHFTLAISSLQAEDFATYSCQQSYTIPYTFGQGTKLEIKR
notes: Biotinylated for Octet; coated and also used HRP-labelled as detection antibody in the ELISA
binds: all assays above
